Measured values reported in the supplement of paper PMC10065799, “High-throughput profiling of sequence recognition by tyrosine kinases and SH2 domains using bacterial peptide display” (eLife, 2023).

Assays:
AncSZ = experiment: phosphorylation enrichment, bacterial display (enrichment ratio); higher = better substrate or ligand; peptides without Tyr show the background
EPHB1 = EPHB1 (UniProt P54762); experiment: as above
EPHB2 = EPHB2 (UniProt P29323); experiment: as above
FGFR1 = FGFR1 (UniProt P11362); experiment: as above
FGFR3 = FGFR3 (UniProt P22607); experiment: as above
Fer (mouse) = experiment: as above
Fes = Fes (UniProt P07332); experiment: as above
Fyn = Fyn (UniProt P06241); experiment: as above
Hck = Hck (UniProt P08631); experiment: as above
Jak2 = Jak2 (UniProt O60674); experiment: as above
MERTK = MERTK (UniProt Q12866); experiment: as above
c-Abl (mouse) = experiment: as above
c-Src = experiment: as above
Grb2 SH2 = Grb2 SH2 (UniProt P62993); experiment: SH2 binding enrichment of the phosphorylated peptide, bacterial display (enrichment ratio); higher = better substrate or ligand; peptides without Tyr show the background
SHP2-C SH2 = experiment: as above
c-Src SH2 = experiment: as above
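Wherever SH2 binding enrichment of the phosphorylated peptide, bacterial display is given: peptide library displayed on the E. coli surface as eCPX fusions, selected cells deep-sequenced, score is each peptide's frequency after selection divided by its frequency in the input.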
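Wherever phosphorylation enrichment, bacterial display is given: 11-residue human phosphosite peptides and single-mutation variants displayed on the E. coli surface, counted by deep sequencing, each peptide's frequency after selection divided by its frequency in the unselected input library; frequency after pTyr selection over input frequency; kinase dosed for 20-30% of maximal phosphorylation in three min.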

Chain of Hck (P08631 whole entry, looked up): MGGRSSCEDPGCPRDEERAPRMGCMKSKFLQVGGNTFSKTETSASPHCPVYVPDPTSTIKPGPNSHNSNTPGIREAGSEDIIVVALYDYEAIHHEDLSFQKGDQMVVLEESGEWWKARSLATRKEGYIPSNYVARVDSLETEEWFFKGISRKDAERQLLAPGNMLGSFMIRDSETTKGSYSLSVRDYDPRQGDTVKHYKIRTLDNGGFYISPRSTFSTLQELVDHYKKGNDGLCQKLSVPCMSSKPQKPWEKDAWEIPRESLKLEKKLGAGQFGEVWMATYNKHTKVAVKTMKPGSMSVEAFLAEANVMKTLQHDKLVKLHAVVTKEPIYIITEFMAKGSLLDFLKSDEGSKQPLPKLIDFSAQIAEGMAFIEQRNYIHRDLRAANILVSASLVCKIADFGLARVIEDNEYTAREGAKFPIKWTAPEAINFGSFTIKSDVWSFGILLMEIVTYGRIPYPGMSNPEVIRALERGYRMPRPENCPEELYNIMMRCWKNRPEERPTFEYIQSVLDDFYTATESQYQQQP
Chain of Fyn (P06241 whole entry, looked up): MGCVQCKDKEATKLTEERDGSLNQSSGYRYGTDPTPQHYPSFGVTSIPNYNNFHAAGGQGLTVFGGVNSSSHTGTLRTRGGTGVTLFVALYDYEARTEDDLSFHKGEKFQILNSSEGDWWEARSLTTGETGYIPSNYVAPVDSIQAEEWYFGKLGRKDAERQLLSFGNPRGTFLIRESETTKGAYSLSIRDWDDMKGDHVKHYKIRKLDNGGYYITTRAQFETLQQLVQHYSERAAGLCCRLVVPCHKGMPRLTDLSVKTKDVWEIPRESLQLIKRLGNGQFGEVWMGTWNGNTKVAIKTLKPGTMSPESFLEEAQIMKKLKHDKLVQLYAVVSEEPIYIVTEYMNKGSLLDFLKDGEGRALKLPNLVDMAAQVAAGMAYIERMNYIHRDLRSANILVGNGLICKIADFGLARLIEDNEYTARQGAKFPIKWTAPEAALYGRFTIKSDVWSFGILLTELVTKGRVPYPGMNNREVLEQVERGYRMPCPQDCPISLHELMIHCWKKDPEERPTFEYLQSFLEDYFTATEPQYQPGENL
Chain of FGFR3 (P22607 whole entry, looked up): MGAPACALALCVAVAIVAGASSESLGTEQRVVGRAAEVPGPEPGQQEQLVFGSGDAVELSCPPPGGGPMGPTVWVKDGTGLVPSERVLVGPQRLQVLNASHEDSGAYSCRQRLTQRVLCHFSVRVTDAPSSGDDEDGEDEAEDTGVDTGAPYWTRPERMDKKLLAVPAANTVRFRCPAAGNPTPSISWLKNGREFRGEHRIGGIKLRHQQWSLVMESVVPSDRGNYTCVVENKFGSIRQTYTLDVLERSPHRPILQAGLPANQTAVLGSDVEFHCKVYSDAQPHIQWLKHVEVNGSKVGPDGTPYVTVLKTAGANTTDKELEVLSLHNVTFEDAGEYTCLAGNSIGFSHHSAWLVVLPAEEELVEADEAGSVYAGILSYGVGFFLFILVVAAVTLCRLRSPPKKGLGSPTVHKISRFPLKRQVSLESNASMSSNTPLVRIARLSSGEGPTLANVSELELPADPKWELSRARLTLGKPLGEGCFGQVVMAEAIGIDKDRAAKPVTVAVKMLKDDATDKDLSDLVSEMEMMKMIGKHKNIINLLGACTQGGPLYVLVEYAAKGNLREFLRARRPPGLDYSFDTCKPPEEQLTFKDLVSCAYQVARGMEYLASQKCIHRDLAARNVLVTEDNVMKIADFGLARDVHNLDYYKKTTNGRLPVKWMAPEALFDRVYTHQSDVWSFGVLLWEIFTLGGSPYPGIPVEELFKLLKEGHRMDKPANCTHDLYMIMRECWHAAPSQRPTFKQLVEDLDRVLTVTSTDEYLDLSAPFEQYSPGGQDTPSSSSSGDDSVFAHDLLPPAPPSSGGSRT
Chain of MERTK (Q12866 whole entry, looked up): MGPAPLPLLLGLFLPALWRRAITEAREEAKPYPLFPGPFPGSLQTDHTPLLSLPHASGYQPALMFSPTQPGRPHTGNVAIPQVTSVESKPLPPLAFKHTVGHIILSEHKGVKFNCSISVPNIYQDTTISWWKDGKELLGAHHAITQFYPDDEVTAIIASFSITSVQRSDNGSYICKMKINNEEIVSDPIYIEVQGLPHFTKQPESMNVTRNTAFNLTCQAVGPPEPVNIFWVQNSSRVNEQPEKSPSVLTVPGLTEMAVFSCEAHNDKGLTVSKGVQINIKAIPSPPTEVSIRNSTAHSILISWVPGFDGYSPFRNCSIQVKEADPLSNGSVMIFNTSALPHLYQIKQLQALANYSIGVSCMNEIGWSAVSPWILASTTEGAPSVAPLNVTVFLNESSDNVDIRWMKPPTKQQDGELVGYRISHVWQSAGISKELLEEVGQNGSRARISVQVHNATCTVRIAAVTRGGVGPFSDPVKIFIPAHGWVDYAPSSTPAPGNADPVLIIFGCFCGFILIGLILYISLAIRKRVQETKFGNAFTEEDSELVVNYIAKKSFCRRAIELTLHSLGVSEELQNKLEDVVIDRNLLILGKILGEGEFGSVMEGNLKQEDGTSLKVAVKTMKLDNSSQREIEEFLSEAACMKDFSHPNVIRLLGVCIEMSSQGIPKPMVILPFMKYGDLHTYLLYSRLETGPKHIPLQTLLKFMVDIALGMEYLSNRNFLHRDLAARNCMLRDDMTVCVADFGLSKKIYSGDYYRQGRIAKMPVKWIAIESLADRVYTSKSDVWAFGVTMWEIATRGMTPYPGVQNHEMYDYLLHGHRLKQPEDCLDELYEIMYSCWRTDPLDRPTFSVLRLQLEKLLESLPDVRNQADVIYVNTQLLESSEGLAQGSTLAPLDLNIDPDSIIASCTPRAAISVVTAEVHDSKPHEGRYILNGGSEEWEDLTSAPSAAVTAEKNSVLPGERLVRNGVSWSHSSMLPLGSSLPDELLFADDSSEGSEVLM
Chain of FGFR1 (P11362 whole entry, looked up): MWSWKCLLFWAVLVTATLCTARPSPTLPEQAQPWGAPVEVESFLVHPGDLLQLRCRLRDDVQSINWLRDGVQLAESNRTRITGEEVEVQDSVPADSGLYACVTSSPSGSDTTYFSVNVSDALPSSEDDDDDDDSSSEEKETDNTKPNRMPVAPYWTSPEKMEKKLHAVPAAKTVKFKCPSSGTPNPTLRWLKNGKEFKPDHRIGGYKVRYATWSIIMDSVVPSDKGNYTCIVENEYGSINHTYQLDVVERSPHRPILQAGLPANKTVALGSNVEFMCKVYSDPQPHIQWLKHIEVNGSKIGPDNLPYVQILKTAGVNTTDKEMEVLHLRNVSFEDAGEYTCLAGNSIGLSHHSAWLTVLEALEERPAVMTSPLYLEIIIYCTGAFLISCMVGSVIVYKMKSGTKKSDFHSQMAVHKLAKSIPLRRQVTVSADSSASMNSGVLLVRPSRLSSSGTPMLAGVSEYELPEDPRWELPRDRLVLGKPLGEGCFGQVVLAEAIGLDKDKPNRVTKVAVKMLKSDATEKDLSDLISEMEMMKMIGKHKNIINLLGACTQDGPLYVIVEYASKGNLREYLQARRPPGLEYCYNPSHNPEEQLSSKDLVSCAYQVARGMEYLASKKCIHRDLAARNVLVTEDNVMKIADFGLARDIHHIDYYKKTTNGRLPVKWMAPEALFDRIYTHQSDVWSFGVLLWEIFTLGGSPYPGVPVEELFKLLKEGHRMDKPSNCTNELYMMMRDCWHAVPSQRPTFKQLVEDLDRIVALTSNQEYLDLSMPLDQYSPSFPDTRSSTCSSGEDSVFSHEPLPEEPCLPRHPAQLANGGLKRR
Chain of EPHB1 (P54762 whole entry, looked up): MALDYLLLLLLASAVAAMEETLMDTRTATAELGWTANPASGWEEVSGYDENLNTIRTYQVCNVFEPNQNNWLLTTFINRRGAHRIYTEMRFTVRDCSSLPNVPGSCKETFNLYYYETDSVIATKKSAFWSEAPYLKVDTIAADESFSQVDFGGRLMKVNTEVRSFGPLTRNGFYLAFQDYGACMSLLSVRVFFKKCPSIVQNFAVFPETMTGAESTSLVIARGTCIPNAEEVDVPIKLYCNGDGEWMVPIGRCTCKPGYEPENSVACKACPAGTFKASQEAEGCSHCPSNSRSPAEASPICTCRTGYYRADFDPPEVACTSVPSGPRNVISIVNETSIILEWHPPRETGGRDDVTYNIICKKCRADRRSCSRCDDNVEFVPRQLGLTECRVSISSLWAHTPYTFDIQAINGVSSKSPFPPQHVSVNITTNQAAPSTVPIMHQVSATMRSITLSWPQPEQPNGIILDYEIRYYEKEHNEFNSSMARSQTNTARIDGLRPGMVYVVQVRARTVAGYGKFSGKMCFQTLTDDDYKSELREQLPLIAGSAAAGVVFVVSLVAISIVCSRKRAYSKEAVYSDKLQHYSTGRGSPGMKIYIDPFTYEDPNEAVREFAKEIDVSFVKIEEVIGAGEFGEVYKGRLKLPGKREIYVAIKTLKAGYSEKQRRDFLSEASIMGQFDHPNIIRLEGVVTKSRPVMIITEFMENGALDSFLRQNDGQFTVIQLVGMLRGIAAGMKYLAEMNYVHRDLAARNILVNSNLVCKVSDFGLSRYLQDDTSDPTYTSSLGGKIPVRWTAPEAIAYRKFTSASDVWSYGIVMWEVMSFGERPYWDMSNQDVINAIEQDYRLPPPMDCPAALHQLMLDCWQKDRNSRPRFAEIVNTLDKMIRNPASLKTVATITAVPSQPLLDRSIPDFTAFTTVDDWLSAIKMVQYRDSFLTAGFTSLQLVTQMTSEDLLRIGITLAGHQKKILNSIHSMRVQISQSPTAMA
Chain of Grb2 SH2 (P62993 whole entry, looked up): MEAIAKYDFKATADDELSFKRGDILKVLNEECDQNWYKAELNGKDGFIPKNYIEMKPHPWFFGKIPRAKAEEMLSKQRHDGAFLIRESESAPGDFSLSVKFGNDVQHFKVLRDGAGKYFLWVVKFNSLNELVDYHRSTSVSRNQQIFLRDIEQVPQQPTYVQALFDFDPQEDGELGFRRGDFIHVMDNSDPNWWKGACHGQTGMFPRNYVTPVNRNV

Row | Sequence | phosphorylation enrichment (AncSZ) | phosphorylation enrichment (EPHB1) | phosphorylation enrichment (EPHB2) | phosphorylation enrichment (FGFR1) | phosphorylation enrichment (FGFR3) | phosphorylation enrichment (Fer (mouse)) | phosphorylation enrichment (Fes) | phosphorylation enrichment (Fyn) | phosphorylation enrichment (Hck) | phosphorylation enrichment (Jak2) | phosphorylation enrichment (MERTK) | phosphorylation enrichment (c-Abl (mouse)) | phosphorylation enrichment (c-Src) | SH2 binding enrichment (Grb2 SH2) | SH2 binding enrichment (SHP2-C SH2) | SH2 binding enrichment (c-Src SH2)
1 | SLTRLCVGENA [NLRP3_Y861_Y861C] | 0.809 | 0.495 | 0.541 | 0.471 | 0.685 | 0.434 | 1 | 0.503 | 0.534 | 0.759 | 0.466 | 2.77 | 0.445 | 0.867 | 0.589 | 0.538
2 | SMGMKYLEEKN [ZAP70_Y451] | 0.717 | 0.518 | 0.463 | 0.493 | 0.506 | 0.454 | 0.879 | 0.7 | 0.398 | 0.727 | 0.383 | 0.644 | 0.434 | 0.962 | 0.86 | 0.638
3 | SNKLYYQLEQE [PDPR_Y110] | 1.37 | 0.903 | 0.761 | 5.94 | 4.95 | 0.601 | 1.19 | 1.52 | 0.922 | 1.27 | 3.9 | 1.11 | 2.36 | 1.17 | 0.725 | 2.13
4 | SNVEQYQAMVT [TPR_Y965] | 0.754 | 0.443 | 0.444 | 0.416 | 0.541 | 0.457 | 0.692 | 0.506 | 0.424 | 0.846 | 0.355 | 0.487 | 0.384 | 0.754 | 0.411 | 0.688
5 | SNYRAYATEPH [TNNI3_Y29] | 0.49 | 0.372 | 0.452 | 0.422 | 0.447 | 0.379 | 0.475 | 0.404 | 0.382 | 0.435 | 0.397 | 0.503 | 0.362 | 0.869 | 0.551 | 0.378
6 | SPFEVYVDKSQ [FLNA_Y373] | 1.08 | 0.669 | 0.515 | 0.493 | 0.726 | 0.499 | 1.27 | 0.477 | 0.499 | 0.99 | 0.388 | 0.581 | 0.481 | 1.02 | 0.697 | 0.685
7 | SPPILYSFYLD [FCRL6_Y239] | 1.31 | 3.28 | 4.22 | 1.42 | 0.924 | 1.37 | 1.05 | 2.03 | 1.57 | 0.775 | 8.22 | 0.736 | 2.74 | 1.28 | 1.14 | 0.882
8 | SPQAHYRLSAF [ADAMTS9_Y100_S96P] | 0.532 | 0.531 | 0.552 | 0.4 | 0.427 | 0.436 | 0.659 | 0.425 | 0.37 | 0.584 | 0.521 | 0.597 | 0.503 | 0.971 | 0.688 | 0.481
9 | SPRDTYSDRIG [CTPS1_Y567_S571I] | 0.445 | 0.516 | 0.5 | 0.379 | 0.494 | 0.358 | 0.605 | 0.453 | 0.471 | 0.374 | 0.416 | 0.411 | 0.406 | 0.844 | 0.617 | 0.438
10 | SQETFYRVSNM [ABCD1_Y181_Q178E_YF] | 0.61 | 0.412 | 0.528 | 0.386 | 0.473 | 0.443 | 0.763 | 0.396 | 0.457 | 0.7 | 0.448 | 0.86 | 0.49 | 0.836 | 0.807 | 0.597
11 | SQQTYCRVSNM [ABCD1_Y181_Y181C] | 0.799 | 3.76 | 1.98 | 0.587 | 0.683 | 0.526 | 0.88 | 0.751 | 1.41 | 0.623 | 0.738 | 0.851 | 0.718 | 0.897 | 0.616 | 1.01
12 | SRPTQYSSFSC [SPEM2_Y104] | 0.764 | 0.584 | 0.511 | 0.557 | 0.578 | 0.486 | 0.986 | 0.627 | 0.598 | 0.816 | 0.619 | 0.752 | 0.7 | 2.26 | 2.11 | 0.857
13 | SRVNKYSTAFG [GJB3_Y16_G12R] | 0.571 | 0.426 | 0.347 | 0.383 | 0.489 | 0.499 | 0.633 | 0.371 | 0.344 | 0.644 | 0.406 | 0.584 | 0.383 | 1.02 | 1.3 | 0.896
14 | SRVTQYERDFE [SNX1_Y463] | 0.837 | 0.428 | 0.486 | 0.501 | 0.611 | 0.419 | 0.954 | 0.46 | 0.476 | 0.635 | 0.379 | 0.844 | 0.396 | 0.854 | 0.77 | 0.697
15 | SSAAGYACLAY [MVD_Y131] | 0.9 | 0.553 | 0.615 | 0.547 | 0.736 | 0.574 | 1.07 | 0.531 | 0.575 | 1.02 | 0.498 | 0.897 | 0.593 | 0.721 | 3.04 | 2.42
16 | SSDKVYAHQMD [MLH1_Y379_V384D] | 0.611 | 0.537 | 0.502 | 0.452 | 0.52 | 0.395 | 0.708 | 0.493 | 0.419 | 0.497 | 0.408 | 0.442 | 0.491 | 0.729 | 0.552 | 0.576
17 | SSNLYYRWLTA [CNGA3_Y169] | 1.04 | 1.52 | 1.91 | 6.93 | 6.24 | 1.98 | 0.897 | 2 | 4.9 | 4.69 | 8.61 | 3.22 | 2.87 | 0.791 | 0.763 | 0.545

Row | Sequence | phosphorylation enrichment (AncSZ) | phosphorylation enrichment (EPHB1) | phosphorylation enrichment (EPHB2) | phosphorylation enrichment (FGFR1) | phosphorylation enrichment (FGFR3) | phosphorylation enrichment (Fer (mouse)) | phosphorylation enrichment (Fes) | phosphorylation enrichment (Fyn) | phosphorylation enrichment (Hck) | phosphorylation enrichment (Jak2) | phosphorylation enrichment (MERTK) | phosphorylation enrichment (c-Abl (mouse)) | phosphorylation enrichment (c-Src) | SH2 binding enrichment (Grb2 SH2) | SH2 binding enrichment (SHP2-C SH2) | SH2 binding enrichment (c-Src SH2)
18 | SSNTEYLSASD [INSR_Y999_P997T] | 0.884 | 0.393 | 0.573 | 0.518 | 0.615 | 0.48 | 0.746 | 0.52 | 0.501 | 0.82 | 0.435 | 0.556 | 0.474 | 0.689 | 0.573 | 0.547
19 | SSSPTYPDLPF [GLI3_Y168] | 0.839 | 0.634 | 0.543 | 0.784 | 0.627 | 0.745 | 0.933 | 0.568 | 0.59 | 0.91 | 0.654 | 0.967 | 0.565 | 0.859 | 0.673 | 0.504
20 | SSWPGYVRPLP [HSPB1_Y54] | 0.774 | 0.48 | 0.423 | 0.491 | 0.458 | 0.459 | 0.648 | 0.52 | 0.485 | 2.22 | 0.407 | 0.54 | 0.491 | 0.97 | 0.654 | 0.741
21 | STAPSYGNPSS [CD19_Y378_G373S] | 0.545 | 0.328 | 0.357 | 0.361 | 0.358 | 0.32 | 0.505 | 0.383 | 0.34 | 0.503 | 0.402 | 0.482 | 0.381 | 0.744 | 0.694 | 0.458
22 | STFVPYEIKVQ [L1CAM_Y784] | 0.906 | 0.564 | 0.512 | 0.506 | 0.629 | 0.527 | 0.996 | 0.538 | 0.475 | 0.805 | 0.338 | 0.678 | 0.393 | 0.85 | 0.726 | 0.552
23 | STKELYEKFMI | 0.725 | 0.411 | 0.414 | 0.409 | 0.492 | 6.97 | 0.857 | 0.724 | 1.01 | 0.619 | 0.872 | 0.6 | 1.01 | 0.915 | 0.709 | 0.615
24 | SVQIVYKPVDL [MAPT_Y627] | 1.17 | 0.698 | 0.499 | 0.409 | 0.65 | 0.467 | 1.12 | 0.4 | 0.455 | 0.891 | 0.376 | 0.689 | 0.464 | 0.951 | 0.845 | 0.515
25 | SVTCTDSPALN [TP53_Y126_Y126D] | 0.975 | 0.6 | 0.564 | 0.491 | 0.805 | 0.567 | 1.13 | 0.447 | 0.474 | 0.958 | 0.351 | 0.847 | 0.427 | 0.667 | 0.662 | 0.419
26 | SVTCTYSPALY [TP53_Y126_N131Y] | 1.76 | 0.808 | 0.786 | 0.523 | 0.929 | 0.695 | 1.71 | 1.27 | 0.932 | 1.33 | 0.495 | 0.91 | 1.21 | 0.569 | 0.638 | 0.397
27 | SVTFTYSPALN [TP53_Y126_C124Y_YF] | 1.08 | 0.502 | 0.554 | 0.392 | 0.697 | 0.465 | 1.21 | 0.424 | 0.453 | 0.991 | 0.336 | 0.675 | 0.392 | 0.862 | 0.705 | 0.457
28 | SVTYTYSPALN [TP53_Y126_C124Y] | 1.5 | 0.95 | 0.87 | 1.24 | 1.34 | 0.621 | 1.16 | 0.967 | 1.17 | 0.997 | 2.79 | 1.78 | 0.998 | 0.76 | 0.717 | 0.453
29 | SVVVPYEAPEV [TP53_Y220_P222A] | 1.2 | 0.649 | 0.485 | 0.483 | 0.8 | 0.546 | 1.01 | 0.442 | 0.492 | 0.998 | 0.969 | 0.79 | 0.405 | 0.79 | 0.808 | 1.26
30 | SVVVPYEPREV [TP53_Y220_P223R] | 0.813 | 0.53 | 0.506 | 0.527 | 0.597 | 0.465 | 0.998 | 0.473 | 0.453 | 0.746 | 0.373 | 0.656 | 0.472 | 0.829 | 0.532 | 0.415
31 | SYPREYGSQEG [RBM10_Y48] | 0.756 | 0.515 | 0.487 | 0.47 | 0.519 | 0.414 | 0.826 | 0.424 | 0.477 | 0.673 | 0.409 | 0.586 | 0.413 | 0.852 | 0.76 | 0.546
32 | TAPYNYSYIFK [RAB14_Y8] | 1.03 | 9.69 | 3.26 | 1.74 | 1.21 | 1.59 | 0.735 | 0.354 | 1.14 | 0.561 | 6.78 | 0.717 | 0.772 | 1.4 | 1.79 | 13.7
33 | TDGNGYISFNE [LCP1_Y28] | 0.923 | 0.476 | 0.485 | 0.546 | 0.752 | 0.489 | 1.13 | 0.454 | 0.458 | 0.824 | 0.412 | 0.624 | 0.603 | 0.922 | 1.98 | 36
34 | TENAGYYFRIS | 1.44 | 0.588 | 0.576 | 0.575 | 0.816 | 0.453 | 1.75 | 0.477 | 0.475 | 1.71 | 0.433 | 0.763 | 0.41 | 0.574 | 0.801 | 0.736
